Measured values as given in PMC4570271, “Resolution of structure of PIP5K1A reveals molecular mechanism for its regulation by dimerization and dishevelled” (Nature Communications, 2015).
Each block holds one binder with its values, some of them ahead of it.

Legend:
[1] = target: T1, GST-tagged DIX domain of mouse DVL1 (residues 1-106) with Y17D (mouse, UniProt P51141 1-106, Y17D); assay: pull-down; GST-DIX (or GST) 0.5 μg and His-tagged PIP5K1 0.5 μg in 200 μl of 10 mM HEPES (pH 7.4), 150 mM NaCl, 0.2% Triton, 0.01% SDS, 3 mM dithiothreitol, 10% glycerol; 4 °C overnight; glutathione beads; western blotting; details: both partners purified
T1 construct: DIX domain of mouse DVL1, residues 1-106, Y17D to eliminate DIX aggregation; A longer construct 1-200 (DIX-L) is named in the methods but tied to no experiment; also called DVL DIX; GST-DVL; source: E. coli, purified (glutathione-agarose beads, size-exclusion chromatography)
T1 sequence (looked up): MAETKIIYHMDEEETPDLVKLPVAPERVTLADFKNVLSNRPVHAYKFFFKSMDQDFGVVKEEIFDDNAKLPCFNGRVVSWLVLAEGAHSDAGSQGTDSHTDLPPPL

Dix109 = target: T2, Dix109; assay: ITC; details: chain shown with the change;
T2 chain: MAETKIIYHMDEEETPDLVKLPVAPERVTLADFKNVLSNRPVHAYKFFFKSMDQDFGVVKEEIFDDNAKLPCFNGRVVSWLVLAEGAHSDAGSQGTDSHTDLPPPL

[2] = target: T1, GST-tagged DIX domain of mouse DVL1 …; assay: cell-based or functional assay

reduction of the interaction against the wild type [1]: > 70%
B1: zebrafish PIP5K1A kinase catalytic domain, D276A mutant (domain or fragment)
chain: MASTGETTYKKTTSSALKGAIQLGITHSVGSLSQKPERDVLMQDFEVVESIFFPSQGSSSTPGHHHGDFKFKTYAPIAFRYFREMFGIRPDDYLYSLCNEPLIELSNPGASGSLFYVSSDDEFIIKTVQHKEAEFLQTLLPGYFMNLNQNMRTLLPKFYGLYCVQADGKNIRIVVMNNLLPRAVPMHLKFDLKGSTYKRRASPKERSKGVPTYKDLDFMQDMPEGILLENAHYTALSRTMQRDCRVLQSFKIMDYSLLVGIHILHRAGEEASTAVPDTQKKGQGQKPLYCTAIESIQGESKSKTSPQPYESMGGIPAFNSKGERLLVFIGIIDILQSYRLVKKLEHSWKALLHDGDTVSVHRPSFYADRFQKFMCSTVFRKSQLKTLE
notes: kinase catalytic domain of zebrafish PIP5K1Aα, residues 49-431; C-terminal 'Leu-Glu' that precedes the His6 tag; source: E. coli BL21-CodonPlus(DE3)-RIL, purified in the same way as the wild-type protein; not shown: His6, C-terminal, kept

change in the interaction against the wild type [1]: ≤ 20%
B2: zebrafish PIP5K1A kinase catalytic domain, E167A mutant (domain or fragment)
chain: MASTGETTYKKTTSSALKGAIQLGITHSVGSLSQKPERDVLMQDFEVVESIFFPSQGSSSTPGHHHGDFKFKTYAPIAFRYFREMFGIRPDDYLYSLCNEPLIELSNPGASGSLFYVSSDDAFIIKTVQHKEAEFLQTLLPGYFMNLNQNMRTLLPKFYGLYCVQADGKNIRIVVMNNLLPRAVPMHLKFDLKGSTYKRRASPKERSKGVPTYKDLDFMQDMPEGILLENDHYTALSRTMQRDCRVLQSFKIMDYSLLVGIHILHRAGEEASTAVPDTQKKGQGQKPLYCTAIESIQGESKSKTSPQPYESMGGIPAFNSKGERLLVFIGIIDILQSYRLVKKLEHSWKALLHDGDTVSVHRPSFYADRFQKFMCSTVFRKSQLKTLE
notes: as for B1

reduction of the interaction against the wild type [1]: > 70%
B3: zebrafish PIP5K1A kinase catalytic domain, S78A mutant (domain or fragment)
chain: MASTGETTYKKTTSSALKGAIQLGITHSVGSLAQKPERDVLMQDFEVVESIFFPSQGSSSTPGHHHGDFKFKTYAPIAFRYFREMFGIRPDDYLYSLCNEPLIELSNPGASGSLFYVSSDDEFIIKTVQHKEAEFLQTLLPGYFMNLNQNMRTLLPKFYGLYCVQADGKNIRIVVMNNLLPRAVPMHLKFDLKGSTYKRRASPKERSKGVPTYKDLDFMQDMPEGILLENDHYTALSRTMQRDCRVLQSFKIMDYSLLVGIHILHRAGEEASTAVPDTQKKGQGQKPLYCTAIESIQGESKSKTSPQPYESMGGIPAFNSKGERLLVFIGIIDILQSYRLVKKLEHSWKALLHDGDTVSVHRPSFYADRFQKFMCSTVFRKSQLKTLE
notes: as for B1

change in the interaction against the wild type [1]: ≤ 20%
B4: zebrafish PIP5K1A kinase catalytic domain, K426A mutant (domain or fragment)
chain: MASTGETTYKKTTSSALKGAIQLGITHSVGSLSQKPERDVLMQDFEVVESIFFPSQGSSSTPGHHHGDFKFKTYAPIAFRYFREMFGIRPDDYLYSLCNEPLIELSNPGASGSLFYVSSDDEFIIKTVQHKEAEFLQTLLPGYFMNLNQNMRTLLPKFYGLYCVQADGKNIRIVVMNNLLPRAVPMHLKFDLKGSTYKRRASPKERSKGVPTYKDLDFMQDMPEGILLENDHYTALSRTMQRDCRVLQSFKIMDYSLLVGIHILHRAGEEASTAVPDTQKKGQGQKPLYCTAIESIQGESKSKTSPQPYESMGGIPAFNSKGERLLVFIGIIDILQSYRLVKKLEHSWKALLHDGDTVSVHRPSFYADRFQKFMCSTVFRASQLKTLE
notes: as for B1

change in the interaction against the wild type [1]: ≤ 20%
B5: zebrafish PIP5K1A kinase catalytic domain, L150A mutant (domain or fragment)
chain: MASTGETTYKKTTSSALKGAIQLGITHSVGSLSQKPERDVLMQDFEVVESIFFPSQGSSSTPGHHHGDFKFKTYAPIAFRYFREMFGIRPDDYLYSLCNEPLIEASNPGASGSLFYVSSDDEFIIKTVQHKEAEFLQTLLPGYFMNLNQNMRTLLPKFYGLYCVQADGKNIRIVVMNNLLPRAVPMHLKFDLKGSTYKRRASPKERSKGVPTYKDLDFMQDMPEGILLENDHYTALSRTMQRDCRVLQSFKIMDYSLLVGIHILHRAGEEASTAVPDTQKKGQGQKPLYCTAIESIQGESKSKTSPQPYESMGGIPAFNSKGERLLVFIGIIDILQSYRLVKKLEHSWKALLHDGDTVSVHRPSFYADRFQKFMCSTVFRKSQLKTLE
notes: kinase catalytic domain of zebrafish PIP5K1Aα, residues 49-431; C-terminal 'Leu-Glu' that precedes the His6 tag; also called Leu-150 to Ala; source: E. coli BL21-CodonPlus(DE3)-RIL, purified in the same way as the wild-type protein; not shown: His6, C-terminal, kept

change in the interaction against the wild type [1]: ≤ 20%
B6: zebrafish PIP5K1A kinase catalytic domain, Y140A mutant (domain or fragment)
chain: MASTGETTYKKTTSSALKGAIQLGITHSVGSLSQKPERDVLMQDFEVVESIFFPSQGSSSTPGHHHGDFKFKTYAPIAFRYFREMFGIRPDDYLASLCNEPLIELSNPGASGSLFYVSSDDEFIIKTVQHKEAEFLQTLLPGYFMNLNQNMRTLLPKFYGLYCVQADGKNIRIVVMNNLLPRAVPMHLKFDLKGSTYKRRASPKERSKGVPTYKDLDFMQDMPEGILLENDHYTALSRTMQRDCRVLQSFKIMDYSLLVGIHILHRAGEEASTAVPDTQKKGQGQKPLYCTAIESIQGESKSKTSPQPYESMGGIPAFNSKGERLLVFIGIIDILQSYRLVKKLEHSWKALLHDGDTVSVHRPSFYADRFQKFMCSTVFRKSQLKTLE
notes: kinase catalytic domain of zebrafish PIP5K1Aα, residues 49-431; the residue is printed 'Try-140' in the results and Y140A later; C-terminal 'Leu-Glu' that precedes the His6 tag; also called Try-140 to Ala; source: E. coli BL21-CodonPlus(DE3)-RIL, purified in the same way as the wild-type protein; not shown: His6, C-terminal, kept

change in the interaction against the wild type [1]: ≤ 20%
B7: zebrafish PIP5K1A kinase catalytic domain, F131A mutant (domain or fragment)
chain: MASTGETTYKKTTSSALKGAIQLGITHSVGSLSQKPERDVLMQDFEVVESIFFPSQGSSSTPGHHHGDFKFKTYAPIAFRYFREMAGIRPDDYLYSLCNEPLIELSNPGASGSLFYVSSDDEFIIKTVQHKEAEFLQTLLPGYFMNLNQNMRTLLPKFYGLYCVQADGKNIRIVVMNNLLPRAVPMHLKFDLKGSTYKRRASPKERSKGVPTYKDLDFMQDMPEGILLENDHYTALSRTMQRDCRVLQSFKIMDYSLLVGIHILHRAGEEASTAVPDTQKKGQGQKPLYCTAIESIQGESKSKTSPQPYESMGGIPAFNSKGERLLVFIGIIDILQSYRLVKKLEHSWKALLHDGDTVSVHRPSFYADRFQKFMCSTVFRKSQLKTLE
notes: as for B1

change in the interaction against the wild type [1]: ≤ 20%
B8: zebrafish PIP5K1A kinase catalytic domain, E149A mutant (domain or fragment)
chain: MASTGETTYKKTTSSALKGAIQLGITHSVGSLSQKPERDVLMQDFEVVESIFFPSQGSSSTPGHHHGDFKFKTYAPIAFRYFREMFGIRPDDYLYSLCNEPLIALSNPGASGSLFYVSSDDEFIIKTVQHKEAEFLQTLLPGYFMNLNQNMRTLLPKFYGLYCVQADGKNIRIVVMNNLLPRAVPMHLKFDLKGSTYKRRASPKERSKGVPTYKDLDFMQDMPEGILLENDHYTALSRTMQRDCRVLQSFKIMDYSLLVGIHILHRAGEEASTAVPDTQKKGQGQKPLYCTAIESIQGESKSKTSPQPYESMGGIPAFNSKGERLLVFIGIIDILQSYRLVKKLEHSWKALLHDGDTVSVHRPSFYADRFQKFMCSTVFRKSQLKTLE
notes: as for B1

change in the interaction against the wild type [1]: ≤ 20%
B9: zebrafish PIP5K1A kinase catalytic domain, E82A mutant (domain or fragment)
chain: MASTGETTYKKTTSSALKGAIQLGITHSVGSLSQKPARDVLMQDFEVVESIFFPSQGSSSTPGHHHGDFKFKTYAPIAFRYFREMFGIRPDDYLYSLCNEPLIELSNPGASGSLFYVSSDDEFIIKTVQHKEAEFLQTLLPGYFMNLNQNMRTLLPKFYGLYCVQADGKNIRIVVMNNLLPRAVPMHLKFDLKGSTYKRRASPKERSKGVPTYKDLDFMQDMPEGILLENDHYTALSRTMQRDCRVLQSFKIMDYSLLVGIHILHRAGEEASTAVPDTQKKGQGQKPLYCTAIESIQGESKSKTSPQPYESMGGIPAFNSKGERLLVFIGIIDILQSYRLVKKLEHSWKALLHDGDTVSVHRPSFYADRFQKFMCSTVFRKSQLKTLE
notes: as for B1

Kd (Dix109; parent: 1.2 µM): 800 nM | other: N (Dix109; parent: 1.01 ± 0.09): 0.98 | other: -TΔS (Dix109; parent: 120 ± 16 KJ mol-1): 53.8 kcal/mol | dG (Dix109; parent: -31.0 ± 3.5 KJ mol-1): -8.32 kcal/mol | other: ΔH (Dix109; parent: -151 ± 19 KJ mol-1): -62.1 kcal/mol | fold activation of the lipid kinase activity by DIX [2]: > 30 fold
B10: zebrafish PIP5K1A kinase catalytic domain, triple D84R/L86A/V291A (DLV) mutant (domain or fragment)
chain: MASTGETTYKKTTSSALKGAIQLGITHSVGSLSQKPERRVAMQDFEVVESIFFPSQGSSSTPGHHHGDFKFKTYAPIAFRYFREMFGIRPDDYLYSLCNEPLIELSNPGASGSLFYVSSDDEFIIKTVQHKEAEFLQTLLPGYFMNLNQNMRTLLPKFYGLYCVQADGKNIRIVVMNNLLPRAVPMHLKFDLKGSTYKRRASPKERSKGVPTYKDLDFMQDMPEGILLENDHYTALSRTMQRDCRALQSFKIMDYSLLVGIHILHRAGEEASTAVPDTQKKGQGQKPLYCTAIESIQGESKSKTSPQPYESMGGIPAFNSKGERLLVFIGIIDILQSYRLVKKLEHSWKALLHDGDTVSVHRPSFYADRFQKFMCSTVFRKSQLKTLE

change in the interaction against the wild type [1]: ≤ 20%
B11: zebrafish PIP5K1A kinase catalytic domain, Q194A mutant (domain or fragment)
chain: MASTGETTYKKTTSSALKGAIQLGITHSVGSLSQKPERDVLMQDFEVVESIFFPSQGSSSTPGHHHGDFKFKTYAPIAFRYFREMFGIRPDDYLYSLCNEPLIELSNPGASGSLFYVSSDDEFIIKTVQHKEAEFLQTLLPGYFMNLNANMRTLLPKFYGLYCVQADGKNIRIVVMNNLLPRAVPMHLKFDLKGSTYKRRASPKERSKGVPTYKDLDFMQDMPEGILLENDHYTALSRTMQRDCRVLQSFKIMDYSLLVGIHILHRAGEEASTAVPDTQKKGQGQKPLYCTAIESIQGESKSKTSPQPYESMGGIPAFNSKGERLLVFIGIIDILQSYRLVKKLEHSWKALLHDGDTVSVHRPSFYADRFQKFMCSTVFRKSQLKTLE
notes: kinase catalytic domain of zebrafish PIP5K1Aα, residues 49-431; C-terminal 'Leu-Glu' that precedes the His6 tag; also called Q194 mutant; source: E. coli BL21-CodonPlus(DE3)-RIL, purified in the same way as the wild-type protein; not shown: His6, C-terminal, kept

reduction of the interaction against the wild type [1]: > 70%
B12: zebrafish PIP5K1A kinase catalytic domain, Y126A mutant (domain or fragment)
chain: MASTGETTYKKTTSSALKGAIQLGITHSVGSLSQKPERDVLMQDFEVVESIFFPSQGSSSTPGHHHGDFKFKTYAPIAFRAFREMFGIRPDDYLYSLCNEPLIELSNPGASGSLFYVSSDDEFIIKTVQHKEAEFLQTLLPGYFMNLNQNMRTLLPKFYGLYCVQADGKNIRIVVMNNLLPRAVPMHLKFDLKGSTYKRRASPKERSKGVPTYKDLDFMQDMPEGILLENDHYTALSRTMQRDCRVLQSFKIMDYSLLVGIHILHRAGEEASTAVPDTQKKGQGQKPLYCTAIESIQGESKSKTSPQPYESMGGIPAFNSKGERLLVFIGIIDILQSYRLVKKLEHSWKALLHDGDTVSVHRPSFYADRFQKFMCSTVFRKSQLKTLE
notes: as for B1
